Assay results reported in patent US12098206B2, “PDGF receptor antibody and use thereof” (Seoul National University R&DB Foundation, priority 2018, dated 2024).
Where a chain is given by its changes, count along the chain named. Where two headings read alike, the source gives them in different places.

T1: mPDGFR-β and cotinine (Mus musculus, UniProt P05622)
T1 construct: mPDGFR-β
T1 sequence (P05622 32-530): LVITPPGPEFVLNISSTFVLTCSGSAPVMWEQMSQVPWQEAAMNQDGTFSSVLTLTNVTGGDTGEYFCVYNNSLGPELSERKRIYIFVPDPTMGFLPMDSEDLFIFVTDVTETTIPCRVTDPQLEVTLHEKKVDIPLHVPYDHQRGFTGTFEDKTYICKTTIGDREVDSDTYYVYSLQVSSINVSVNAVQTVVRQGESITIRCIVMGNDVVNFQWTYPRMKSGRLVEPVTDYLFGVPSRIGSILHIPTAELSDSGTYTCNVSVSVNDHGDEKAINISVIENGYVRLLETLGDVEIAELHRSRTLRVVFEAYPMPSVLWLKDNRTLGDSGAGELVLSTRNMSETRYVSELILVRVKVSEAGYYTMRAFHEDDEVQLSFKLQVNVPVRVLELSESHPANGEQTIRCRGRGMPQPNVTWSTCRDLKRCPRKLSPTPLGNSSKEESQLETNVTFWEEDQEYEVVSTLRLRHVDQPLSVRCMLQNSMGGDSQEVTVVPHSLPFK

T2: mPDGFR-β (Mus musculus, UniProt P05622)
T2 construct: mPDGFR-β
T2 sequence (P05622 32-530): T1 sequence (P05622 32-530)

B1: PRb-CC01: anti-mPDGFR-β scFv clone (VH SEQ ID NO 15, VL SEQ ID NO 16), tested as scFv-Cκ-anti-cotinine scFv bispecific antibody (antibody, V domains shown)
VH: AVTLDESGGGLQTPGGALSLVCKGSGFTFSSYNMGWVRQAPGKGLEFVAGISAADNSTAYGAAVDGRATISRDNGQSTVRLQLNNLRAEDTATYFCIRGGGSIDAWGHGTEVIVSS
VL: LTQPSSVSANLGGTVKITCSGGGSYYGWYQQKSPGSAPVTLIYYNDKRPSDIPSRFSGSKSGSTGTLTITGVQAEDEAVYFCGAWDNSAGYAGFGAGTTLTVL
modifications: VH of PRb-CC01; VL of PRb-CC01
B2: PRb-CC02: anti-mPDGFR-β scFv clone (VH SEQ ID NO 23, VL SEQ ID NO 24), tested as scFv-Cκ-anti-cotinine scFv bispecific antibody (antibody, V domains shown)
VH: AVTLDESGGGLQTPGGALSLVCKASGFTFSSYGMFWVRQAPGKGLEWVAGIDTGSGTNYGSAVKGRATISRDNGQSTVRLQLNNLRAEDTGTYFCTRGYAGTIDAWGHGTEVIVSSTS
VL: LTQPSSVSANPGETVKITCSGGGGSYGWYQQKSPGSAPVTVIYYNDKRPSDIPSRFSGSKSGSTGTLTITGVQAEDEAVYFCGSYNSSDSLFGAGTTLTVL
modifications: VH of PRb-CC02; VL of PRb-CC02
B3: PRb-CC03: anti-mPDGFR-β scFv clone (VH SEQ ID NO 31, VL SEQ ID NO 32), tested as scFv-Cκ-anti-cotinine scFv bispecific antibody (antibody, V domains shown)
VH: AVTLDESGGGLQTPGGTLSLVCKASGFTFSSYAMGWVRQAPGKGLEWVAGIDTAGGTAYGPAVKGRATISRDNGQSTVRLQLNNLRAEDTATYYCTRSSYIDTWGHGTEVIVSSTS
VL: B2 VL with G23T, G24Y, S25N, Y44W, F81Y, Y85S, N86D, D89G, S90L, L91I
modifications: VH of PRb-CC03; VL of PRb-CC03

Assays:
[1] = mice; conventional studies; cited from earlier work
[2] = test system: NIH3T3 cells; test: cells; type: cell-based, mouse; conditions: for IC50: Mus musculus, NIH3T3, 72 h, NIH3T3 cells, 72 hours; for toxicity with the addition of mPDGF-BB: complex with cot-duo or cot-duo-cot; for toxicity with the addition of mPDGF-BB / toxicity compared to control anti-HER2 x cotinine scFv-Cκ-scFv: NIH3T3, FIG. 5; for toxicity compared to control anti-HER2 x cotinine scFv-Cκ-scFv: complex with cotinine-duocarmycin, with or without mPDGF-BB
Experimental: NIH3T3 cells were added to 50 μL of DMEM supplemented with 10% FBS and 1% penicillin/streptomycin, placed in a 96-well plate (CLS3595, Corning) and incubated overnight in 5% CO2 at 37° C. incubator. In each well containing 50 μL of cells, 50 μL of 50 anti-PDGFR-β x cotinine scFv-Cκ-scFv fusion protein (25.6 pM-2 μM) complexed with cot-duo or cot-duo-cot obtained in Experimental Example 10 was added and incubated for 72 hours in 5% CO2 at 37° C. incubator. To test mPDGF-BB on the toxic effect of the bispecific antibody of scFv-Cκ-scFv and the cotinine-duocarmycin complex, mPDGF-BB (2 nM) was added together with 50 μL of the bispecific antibody scFv-Cκ-scFv and the cotinine-duocarmycin complex. The mixed complexes were added to 50 μL of NIH3T3 cells.
The bispecific antibody of anti-HER2 x cotinine scFv-Cκ-scFv was used as a control. After 72 hours of incubation in the cells, 100 μL of Cell Titer-Glo reagents (Promega Corp., Madison, WI, USA) were added to all wells according to the manufacturer's instructions, and luminescence was measured in a luminometer (PerkinElmer, Waltham, MA, USA). The experiment was repeated 3 times. Relative viability was calculated with the following formula: [% viability=(luminescence of experimental well-luminescence of background well)/(luminescence of control-luminescence of background well)×100]. The wells containing only new medium were used as background wells.
To evaluate the toxicity of the complex of anti-mPDGFR-B x cotinine scFv-Cκ-scFv bispecific antibodies and cotinine duocarmycin (cot-duo, cot-duo-cot), the complexes were added to NIH3T3 cells in the presence/absence of mPDGF-BB. The ATP of the cells was measured for relative cell viability. The toxicity of the bispecific antibody of scFv-Cκ-scFv fusion antibody was shown by IC50 in Table 6 and FIG. 5.
It was carried out in the same manner as in Example 7, except that the bispecific antibody related with the anti-mPDGFR-β antibody and the bispecific antibody related with the anti-hPDGFR-β antibody prepared in Example 10 were used. FIG. 20a to FIG. 20b are graphs showing the difference in cytotoxic activity of PRb-CN01 and PRb-CN32 bispecific antibodies and cotinine-duocarmycin complexes in the cells expressing PDGFR-β. In FIG. 20b, an experiment was repeated in the presence of mPDGF-BB.

[3] = molecular target: PDGFR-β (Homo sapiens, UniProt P09619); conditions: cited from earlier work
Sequence of PDGFR-β (P09619 33-1106): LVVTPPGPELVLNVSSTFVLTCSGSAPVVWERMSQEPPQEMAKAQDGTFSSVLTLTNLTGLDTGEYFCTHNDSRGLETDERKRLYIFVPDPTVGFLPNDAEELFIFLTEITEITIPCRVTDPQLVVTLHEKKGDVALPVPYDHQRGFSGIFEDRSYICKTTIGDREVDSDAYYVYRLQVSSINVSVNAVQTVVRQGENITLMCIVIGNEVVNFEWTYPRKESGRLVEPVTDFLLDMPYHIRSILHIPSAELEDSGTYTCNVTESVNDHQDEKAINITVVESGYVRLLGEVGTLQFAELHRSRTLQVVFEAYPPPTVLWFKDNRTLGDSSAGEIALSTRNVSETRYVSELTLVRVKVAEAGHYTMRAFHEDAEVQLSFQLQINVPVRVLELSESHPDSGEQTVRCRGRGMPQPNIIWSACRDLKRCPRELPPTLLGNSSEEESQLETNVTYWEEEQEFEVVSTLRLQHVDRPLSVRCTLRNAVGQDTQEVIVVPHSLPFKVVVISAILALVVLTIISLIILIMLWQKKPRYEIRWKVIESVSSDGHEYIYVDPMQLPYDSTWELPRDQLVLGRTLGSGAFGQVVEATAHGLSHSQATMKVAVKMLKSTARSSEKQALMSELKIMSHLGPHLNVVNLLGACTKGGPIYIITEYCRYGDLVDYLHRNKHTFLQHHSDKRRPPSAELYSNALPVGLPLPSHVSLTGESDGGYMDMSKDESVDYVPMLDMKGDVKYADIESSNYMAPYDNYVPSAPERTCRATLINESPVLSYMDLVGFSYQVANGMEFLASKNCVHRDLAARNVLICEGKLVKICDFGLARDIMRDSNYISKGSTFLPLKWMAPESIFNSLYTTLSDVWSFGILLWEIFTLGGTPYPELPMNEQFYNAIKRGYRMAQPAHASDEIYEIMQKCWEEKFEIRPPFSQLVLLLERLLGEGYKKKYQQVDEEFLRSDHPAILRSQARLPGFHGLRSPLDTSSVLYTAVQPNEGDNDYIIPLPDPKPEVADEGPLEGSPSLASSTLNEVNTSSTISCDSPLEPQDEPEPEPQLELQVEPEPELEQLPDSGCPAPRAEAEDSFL

[4] = combination of Olaratumab and doxorubicin compared to doxorubicin alone; cited from earlier work
[5] = rats; cited from earlier work
[6] = persons treated with up to 1,800 mg for 4 consecutive days; cited from earlier work
[7] = molecular target: T1, mPDGFR-β and cotinine; test: Enzyme immunoassay, simultaneous binding to cotinine and mPDGFR-β; conditions: cotinine-BSA coated wells, then mPDGFR-β-Fc chimera; FIG. 3d
Experimental: In order to confirm whether the bispecific antibody has simultaneous binding ability to both cotinine and mPDGFR-β, anti-mPDGFR-β x cotinine scFv-Cκ-scFv fusion protein was reacted in wells coated with cotinine-BSA. Washing was performed for each process, and mPDGFR-β-Fc chimeric protein and HRP-anti human Fc antibody were sequentially incubated.

[8] = test system: NIH3T3 cells; test: Internalization analysis by confocal microscopy in NIH3T3 cells; type: cell-based, mouse; conditions: 10 μg/mL, 37° C., 30 minutes, FIG. 4c
Experimental: The bispecific antibody of scFv-Cκ-scFv fusion protein was analyzed with a confocal microscope for visualizing internalization. NIH3T3 cells were treated with the bispecific antibody of scFv-Cκ-scFv (10 μg/mL) diluted in DMEM containing 10% FBS, and internalized at 37° C. for 30 minutes. After washing the cells 3 times with cold PBS, acidic buffer (0.2 M acetic acid, 0.5 M sodium chloride) was treated at room temperature for 5 minutes to remove the antibody bound to the cell surface. Cells were washed twice with cold PBS, fixed with 4% paraformaldehyde for 10 minutes, and then subjected to immunofluorescence staining as previously described [J. M. Lim et al., J. Cell. Biol. 210 (2015) 23].
Briefly, to block antibodies having non-specific reaction, cells were incubated in PBS containing 5% horse serum and 0.1% Triton X-100 for 30 minutes, and 2 μg/mL FITC-anti human Cκ antibody (TB28-2, BD Biosciences) was added at room temperature for 30 minutes. To image the initial endosomes, the cells were washed 3 times with PBS, incubated with PBS containing 5% horse serum and 0.1% Triton X-100 for 30 minutes, and then incubated with ati-RabS antibody diluted to 1:200 (C8B1, Cell Signaling Technology, Danvers, MA, USA). Alexa Fluor 546 goat anti-rabbit IgG (A-11035, Invitrogen) was sequentially treated. Cells were treated with 0.2 μg/mL DAPI to detect DNA. Confocal microscopy images were obtained using a Zeiss LSM 880 microscope, and images were analyzed with Zen software (Carl Zeiss, Thornwood, NY, USA).
To measure the cellular internalization of the bispecific antibody of scFv-Cκ-scFv, anti-mPDGFR-β x cotinine scFv-Cκ-scFv fusion protein was incubated in NIH3T3 cells, and then treated with FITC-anti-human Cκ antibody and endosome-specific antibody. It was imaged using a confocal microscope. […] When the images were merged, the present inventors confirmed that the fluorescence of the three antibody clones and the endosome-specific antibody were co-localized.

[9] = molecular target: T2, mPDGFR-β; test: Competition enzyme immunoassay with mPDGF-BB; type: binding; conditions: mPDGF-BB 100 nM; FIG. 4a
Experimental: In order to confirm the competition between the bispecific antibody according to the present invention and mPDGF-BB, the microtiter plate was coated with mPDGFR-β-Fc chimera as mentioned above and then blocked. The microtiter plate was treated with various concentrations of the bispecific antibody (0.06 nM-1 μM) with or without addition of mPDGF-BB (100 nM), and then incubated at 37° C. for 2 hours. The washing, incubation, and detection were performed in the same manner as the enzyme immunoassay described above.
A competition enzyme immunoassay was developed to examine the effect of mPDGF-BB on the binding ability of anti-mPDGFR-β x cotinine scFv-Cκ-scFv fusion protein. The serially diluted bispecific antibodies (anti-mPDGFR-β scFv-Cκ-cotinine scFv) were incubated on wells coated with mPDGFR-β-Fc chimeric fusion protein with or without mPDGF-BB. HRP-anti-human Cκ antibody was incubated and then TMB was added. […] However, the binding ability of PRb-CN01 was not inhibited, so it confirmed that PRb-CN01 binds to mPDGFR-β in a noncompetitive manner to mPDGF-BB.

Molecule	simultaneous binding to mPDGFR-β and cotinine [7]	cellular internalization [8]	toxicity with the addition of mPDGF-BB [2]	binding ability to mPDGFR-β in the presence of mPDGF-BB [9]	toxicity compared to control anti-HER2 x cotinine scFv-Cκ-scFv [2]	other results
COC(=O)c1cc2c([nH]1)C(=O)C=C1N(C(=O)c3cc4cc(OC)c(OC)c(OC)c4[nH]3)C[C@H]3C[C@]123 [Free duocarmycin, duocarmycin, reference compound]						weight loss [1]: induced significantly weight loss; IC50 ([2]; read-out: Cot-duo IC50 (nM), complex with cot-duo (DAR4), or conjugate/free drug alone, with mPDGF-BB (2 nM)): 23.8 nM; IC50 ([2]; read-out: Cot-duo IC50 (nM), complex with cot-duo (DAR4), or conjugate/free drug alone, without mPDGF-BB): 9.7 nM; IC50 ([2]; read-out: Cot-duo-cot IC50 (nM), complex with cot-duo-cot (DAR2), or conjugate/free drug alone, with mPDGF-BB (2 nM)): 60.3 nM; IC50 ([2]; read-out: Cot-duo-cot IC50 (nM), complex with cot-duo-cot (DAR2), or conjugate/free drug alone, without mPDGF-BB): 35.7 nM
Olaratumab: recombinant human IgG1 antibody against PDGFR-α						cross-reactivity with PDGFR-β [3]: dose not cross-react with PDGFR-β; overall mean survival [4]: significantly improved overall mean survival compared to doxorubicin alone
CN1C(=O)CC[C@H]1c1cccnc1 [Cotinine, cotinine]						LD50 [5]: 4000 ± 100 mg/kg; adverse side effects [6]: no adverse side effects were induced
B1	simultaneously bound to mPDGFR-β and cotinine	not internalized	decreased with the addition of mPDGF-BB	inhibited in the presence of mPDGF-BB		
B2	simultaneously bound to mPDGFR-β and cotinine	Intracellular fluorescence was detected	decreased with the addition of mPDGF-BB	inhibited in the presence of mPDGF-BB	showed toxicity compared to the control antibody and the non-internalizing antibody (PRb-CC01), but did not show statistical significance	
B3	simultaneously bound to mPDGFR-β and cotinine	Intracellular fluorescence was detected	decreased with the addition of mPDGF-BB	inhibited in the presence of mPDGF-BB	showed toxicity compared to the control antibody and the non-internalizing antibody (PRb-CC01), but did not show statistical significance	
